Publication PMC6430559, “Antigenicity and Immunogenicity of Differentially Glycosylated Hepatitis C Virus E2 Envelope Proteins Expressed in Mammalian and Insect Cells” (Journal of Virology, 2019)

Assays:
Assay in all cases: BLI; Octet RED96; His6-tagged sE2 (5 ug/ml, 600 s) loaded on Ni2+-NTA biosensors and stabilised with EDC/NHS, quenched with 1 M ethanolamine pH 8.0; association 300 s, dissociation 300 s; 2-fold dilution series of CD81 or HMAb (IgG format); steady-state analysis by the legend, global fit by the methods; values may reflect bivalent IgG binding
[1] = target: HEK293-derived soluble HCV E2 glycoprotein (sE2), genotype 1a H77c, residues 384 to 661, monomeric (hepatitis C virus genotype 1a, strain H77c) (UniProt P27958)
[2] = target: Sf9-derived soluble HCV E2 glycoprotein (sE2), genotype 1a H77c, residues 384 to 661, monomeric (hepatitis C virus genotype 1a, strain H77c) (UniProt P27958)
[3] = target: T1, Sf9-derived soluble HCV E2 glycoprotein (sE2), genotype 1a H77c, residues 384 to 661, monomeric (hepatitis C virus genotype 1a, strain …, UniProt P27958 384-661, N-glycans at positions 417, 423, 430, 448, 476, 532, 540, 556, 576, 623 and 645; mainly paucimannose-type glycans, with or without one or two core fucose residues); settings: both partners purified
T1 construct: HCV envelope glycoprotein E2 lacking the C-terminal transmembrane anchor, amino acids 384 to 661 of the strain 1a HCV H77c polyprotein; also called Sf9-derived sE2; Sf9 sE2; source: Sf9 cells infected with recombinant baculovirus, secreted; purified from culture supernatant (HisTrap Ni2+-NTA, Superdex 200; monomer peak); not shown: His6, C-terminal, kept

[4] = target: T2, HEK293-derived soluble HCV E2 glycoprotein (sE2), genotype 1a H77c, residues 384 to 661, monomeric (hepatitis C virus genotype 1a, strain …, UniProt P27958 384-661, N-glycans at positions 417, 423, 430, 448, 476, 532, 540, 556, 576, 623 and 645; mostly complex- and high-mannose-type glycans); settings: both partners purified
T2 construct: HCV envelope glycoprotein E2 lacking the C-terminal transmembrane anchor, amino acids 384 to 661 of the strain 1a HCV H77c polyprotein; also called HEK293-derived sE2; HEK293 sE2; source: FreeStyle 293-F (HEK293-F) cells, transfected, secreted; purified from culture supernatant (HisTrap Ni2+-NTA, Superdex 200; monomer peak); not shown: His6, C-terminal, kept
T2 sequence (P27958 384-661): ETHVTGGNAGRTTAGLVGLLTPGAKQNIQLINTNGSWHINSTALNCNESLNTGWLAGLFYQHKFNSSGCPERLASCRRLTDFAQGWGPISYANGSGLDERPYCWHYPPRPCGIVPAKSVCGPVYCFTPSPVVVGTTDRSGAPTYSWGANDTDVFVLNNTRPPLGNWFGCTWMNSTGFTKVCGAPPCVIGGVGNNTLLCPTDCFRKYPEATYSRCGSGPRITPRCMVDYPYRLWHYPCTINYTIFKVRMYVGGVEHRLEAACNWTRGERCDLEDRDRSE

Chain of Sf9-derived soluble HCV E2 glycoprotein (sE2), genotype 1a H77c, residues 384 to 661, monomeric (hepatitis C virus genotype 1a, strain H77c) (P27958 384-661): as above
Chain of HEK293-derived soluble HCV E2 glycoprotein (sE2), genotype 1a H77c, residues 384 to 661, monomeric (hepatitis C virus genotype 1a, strain H77c) (P27958 384-661): as above
T1 sequence (P27958 384-661): as above

B1: Human monoclonal antibody (HMAb) HC33.1, specific for antigenic domain E of HCV E2 (antibody, V domains shown)
VH: EVQLVESGGGLVQPGGSLRLSCVASGLTFTNFAVSWVRQAPGKGLEWVSAISSSDGSTYYSDSVKGRFTISRDSSMNTLYLQMDSLRVEDTAVYFCARAVVSSDITYTYWSKYFDYWGQGTLVTVSS
VL: QSVVTQPPSVSAAPGQKVTISCSGGSFNIGNNYVSWYQQLPGTAPKLLIYDNDNRPSGIPDRFSGSKSGTSATLDITGLQTGDEADYYCGTWDSSLNVVVFGGGTKLTVL
Kd [1]: 50 nM
Kd [2]: 47 nM

B2: Human CD81 large extracellular loop (CD81-LEL; CD81 residues 113 to 201) (domain or fragment, UniProt P60033 113-201, looked up)
chain: FVNKDQIAKDVKQFYDQALQQAVVDDDANNAKAVVKTFHETLDCCGSSTLTALTTSVLKNNLCPSGSNIISNLFKEDCHQKIDDLFSGK
notes: human CD81 large extracellular loop, residues 113 to 201; Cloned into the vector pHLsec (Addgene plasmid #99845 is the vector); The C-terminal His6 tag was stripped with carboxypeptidase A-agarose before biolayer interferometry; also called recombinant CD81; source: FreeStyle HEK293-F cells, transfected, secreted; purified from culture supernatant (HiTrap chelating HP Ni2+-NTA, Superdex 75); not …
Kd [3]: 440 ± 38 nM
Kd [4]: 510 ± 22 nM
